The results in this text go back to patent US20240287172A1 (SCIRHOM, published 2024).

One experiment deals with T1, hiR2-FL-P532A-T7 (human, UniProt Q6PJF5 1-856).
T1 sequence: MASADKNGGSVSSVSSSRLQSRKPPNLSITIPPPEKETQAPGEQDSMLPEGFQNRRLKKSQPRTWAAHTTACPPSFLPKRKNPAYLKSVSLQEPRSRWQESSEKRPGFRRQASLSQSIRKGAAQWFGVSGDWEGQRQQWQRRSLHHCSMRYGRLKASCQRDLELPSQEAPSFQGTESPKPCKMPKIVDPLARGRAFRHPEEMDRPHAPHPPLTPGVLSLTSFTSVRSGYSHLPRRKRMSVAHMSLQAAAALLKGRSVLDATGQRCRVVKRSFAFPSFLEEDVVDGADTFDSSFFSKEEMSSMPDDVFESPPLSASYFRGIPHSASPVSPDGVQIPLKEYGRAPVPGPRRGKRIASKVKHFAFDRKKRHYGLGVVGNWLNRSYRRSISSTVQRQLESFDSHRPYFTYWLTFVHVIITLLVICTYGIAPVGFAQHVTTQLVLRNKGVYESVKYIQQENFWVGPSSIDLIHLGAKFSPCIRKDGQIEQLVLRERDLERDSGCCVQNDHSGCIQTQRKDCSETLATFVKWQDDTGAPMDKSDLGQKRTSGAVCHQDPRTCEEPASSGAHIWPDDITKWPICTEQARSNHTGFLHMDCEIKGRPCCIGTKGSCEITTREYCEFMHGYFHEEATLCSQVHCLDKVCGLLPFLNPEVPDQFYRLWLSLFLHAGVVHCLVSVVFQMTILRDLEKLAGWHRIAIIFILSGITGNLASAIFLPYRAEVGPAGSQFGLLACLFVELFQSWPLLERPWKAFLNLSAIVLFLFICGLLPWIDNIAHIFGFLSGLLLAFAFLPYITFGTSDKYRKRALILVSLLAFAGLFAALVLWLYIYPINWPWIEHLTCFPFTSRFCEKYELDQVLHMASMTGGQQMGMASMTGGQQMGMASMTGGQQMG
The experiment is described as follows: FACS on MEF-DKO cells expressing the variant, 3 µg/ml antibody. A digest of the protocol: (§1)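 Primary stain: antibody 3 μg/ml, 1 h on ice; controls buffer alone. Secondary: PE anti-mouse IgG F(ab′)2 1:100, 1 h on ice, light-protected. Washes at 4° C; read by flow cytometry.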

In the next experiment the target is T2, hiR2-FL-D504A-T7 (human, UniProt Q6PJF5 1-856).
T2 construct: reduced surface expression reported
T2 sequence: T1 sequence with D504A, A532P
The description is as above. The gist of the method:
as §1

Residue numbers refer to the chain shown, from its start. A value given as a limit tells only on which side of the number the result lay.

B1: antibody 5 (antibody, V domains shown)
VH: QVTLKESGPGILQPSQTLSLTCSFSGFSLSTFGMGVGWIRQPSGKGLEWLAHIWWDDEKYYNSALKSRLTISKATSKNQAFLKIANVDTADTATYYCARISNYGSNYWYFNVWGTGTTVTVSS
VL: QVVLTQSPALMSASPGEKVTMTCSAGSSVSCMYWYQQKPGSSPRVLIYDTSNLASGVPARFTGSGSGTSYSLTISRMEAEDAASYYCQQWNSYPLTFGAGTKLELK
notes: mouse IgG, kappa light chain; also called clone #5; purified antibody 5
For B1, in the experiment with hiR2-FL-P532A-T7, the “loss of binding vs wild type” value was no less than 30%.

B2: antibody 44 (antibody, V domains shown)
VH: B1 VH with G44E, E58D, S63P, A74D, A80I, A85T, D91E, A98S, S101G, N111D
VL: QIVLTQSPAVMSASPGEKVTMTCTASSSVYYMYWYQQTPGSSPRLLIYDTSNLASGVPVRFSGSGSGTSYSLTISRMEAEDAATYYCQQWNTYPLTFGAGTKLELK
notes: mouse IgG, kappa light chain; also called clone #44; purified antibody 44
Turning to B2, the “loss of binding vs wild type” value with hiR2-FL-P532A-T7 was no less than 30%.

B3: antibody 48 (antibody, V domains shown)
VH: QVQLQQSGTELVRPGTSVKVSCKASGYAFTNYLIEWVKQRPGQGLEWIGVINPGSGFTKYNEKFKGKATLTADKSSSTVYMHLSSLTSEDSAVYFCARGLYRAMDYWGQGTSVTVSS
VL: DIQMTQSPASQSASLGESVTITCLASQTIATWLAWYQQKPGKSPQLLIYGATTLADGVPSRFSGGGSGTKFSFKISSLQAEDFVSYYCQQLYSTPYTFGGGTKLEIK
notes: mouse IgG, kappa light chain; also called clone #48; purified antibody 48
For the molecule B3, the “loss of binding vs wild type” value with hiR2-FL-D504A-T7 is no less than 60%.

B4: antibody 50 (antibody, V domains shown)
VH: B3 VH with T9A, T16A, T30S, V79A, H82Q
VL: B3 VL with A30G, G50A, T52A, T53S, S85N, L91I
notes: mouse IgG, kappa light chain; also called clone #50; purified antibody 50
Consider B4, for which the “loss of binding vs wild type” value with hiR2-FL-D504A-T7 is no less than 60%.
